From patent US20210261671A1 (HARPOON THERAPEUTICS, published 2021) come the findings set out here.

Changes are numbered by the printed parent chain.

B1: FLL107 (VHH)
VHH: QVQLQESGGGLVQAGGSLRLSCAASGRTFSSYAMGWFRQAPGKEREFVAAISWSGSNTYYADSVKGRFTISRDNAKNTVYLQMDSLKPEDTAVYYCAAGGSTRVVVTTTPVVKYWGQGTQVTVSS
notes: llama anti-FLT3 variable domain; E. coli periplasmic extract
B2: FLL61 (VHH)
VHH: B1 VHH with G26E, S56G, N57S, V111I
notes: as for B1
B3: FLL34 (VHH)
VHH: B1 VHH with M34L, S56G, N74D
notes: as for B1
B4: FLL78 (VHH)
VHH: B1 VHH with L11W, N57S, Q82L
notes: as for B1
B5: FLL4 (VHH)
VHH: B1 VHH with G26E, A33T, I51M, S56G, N57S
notes: as for B1
B6: FLL141 (VHH)
VHH: B1 VHH with K43M, S56Y, N57S, N74D
notes: as for B1
B7: FLL160 (VHH)
VHH: QVQLQESGGGLVQAGDSLRLSCATSGRTFNLYRVGWFRQAPGKEREFVARITWSADITQYADSVKGRFTISRDNAKNTVYLQMNSLKPEDTAIYYCATTLRKSSGIYHVDDYDDWGQGTQVTVSS
notes: as for B1
B8: FLL173 (VHH)
VHH: B7 VHH with D16G, A61T, V109T, D114Y
notes: as for B1
B9: FLL178 (VHH)
VHH: QVQLQESGGGLVQPGGSLRLSCAASGFTFSDYAMSWVRQAPGKGLEWVSGISSGGYKIGYTDSTKGRFTISRDNAKNTLYLQMNSLTAEDTAVYYCAKGTQWSWSLRDNTSRGQGTQVTVSS
notes: as for B1
B10: FLL27 (VHH)
VHH: B9 VHH with A23K, D31S, T87N, S105A, N109S
notes: as for B1
B11: FLL1 (VHH)
VHH: QVQLQESGGGLVQAGGSLRLSCAASGRTFSTLTVAWFRQAPGKEREFVVASIPSGSNTGYAESVKGRFTISRDIAKNTVYLQMNSLKPEDTAMYFCAARIYFGSSRGYDYWGQGTQVTVSS
notes: as for B1
B12: FLL26 (VHH)
VHH: B11 VHH with S30T, L32Y, V48L, S54T, G59A, D73G, I74N, F95Y, I100T
notes: as for B1
B13: FLL190 (VHH)
VHH: QVQLQESGGGLVQAGGSLTLSCTASGSTFSINHFSWYRQAPGKQRELVAFISSDGVSIDVESVKGRFTISGDNDKNTAYLQMNGLKPEDTAVYYCYYRGFWGQGTQVTVSS
notes: as for B1
B14: FLL43 (VHH)
VHH: B13 VHH with A14P, S35A, V56R, I58T, F100S
notes: as for B1
B15: FLL116 (VHH)
VHH: QVQLQESGGGLVQAGGSLRLSCAASGVTFSINYIDWYRQAPGKQREWVAQITRDSNSFYADSVKGRFAISRDNAKNTVYLQMNSLKPEDTAVYYCRVLSYWGQGTQVTVSS
notes: as for B1
B16: FLL32 (VHH)
VHH: B15 VHH with A23Q, S30N, K43R, N56T, S57R, T77M, M82L, V97I
notes: as for B1
B17: FLL14 (VHH)
VHH: B15 VHH with V97L
notes: as for B1
B18: FLL101 (VHH)
VHH: B15 VHH with S84N
notes: as for B1
B19: FLL146 (VHH)
VHH: B15 VHH with S55D, N56T, S84N, K86R, V97L, Y100F
notes: as for B1
B20: FLL129 (VHH)
VHH: B15 VHH with I31A, N32S, K43N, Q44E, D54G, S55G, N56D
notes: as for B1
B21: FLL137 (VHH)
VHH: B15 VHH with V27S, S30N, I31N, N32Y, Y33A, I34M, Y37F, N56S
notes: as for B1
B22: FLL77 (VHH)
VHH: B15 VHH with A14P, N32S, K43N, Q44E, D54G, S55G, N56D, V97I
notes: as for B1
B23: FLL97 (VHH)
VHH: B15 VHH with I69V
notes: as for B1
B24: FLL181 (VHH)
VHH: B15 VHH with G16D, I31A, N32S, K43N, Q44E, D54G, S55G, N56D
notes: as for B1
B25: FLL179 (VHH)
VHH: B15 VHH with A23K, S55G, N56S, V97I, Y100D
notes: as for B1
B26: FLL103 (VHH)
VHH: B15 VHH with A23E, V27P, I69V
notes: as for B1
B27: FLL51 (VHH)
VHH: B15 VHH with A14P, V27F, T28D, N32S, K43N, Q44E, D54G, S55G, N56D, V97I
notes: as for B1
B28: FLL187 (VHH)
VHH: B15 VHH with A14P, D72E
notes: as for B1

The first assay has as its target T1, human FLT3 protein (human, UniProt P36888 27-541, limits assumed).
T1 construct: protein coated in the screening ELISA; also called ELISA FLT3
Briefly: colorimetric ELISA, periplasmic extract. The source says: (§1) Llamas were immunized with purified FLT3 protein expressed in Expi293 cells. A phage display library for expression of heavy variable antibody domains was constructed from circulating B cells isolated from the immunized llamas (See van der Linden, de Geus, Stok, Bos, van Wassenaar, Verrips, and Frenken. 2000. J Immunol Methods 240:185-195). Phage clones were screened for binding to FLT3 by expressing llama anti-FLT3 proteins in E. coli, preparing periplasmic extracts, and performing colorimetric ELISAs.
(In general: In an ELISA, binding on a coated surface is turned into a signal by an enzyme label.)
For B1, the “ELISA FLT3 (absorbance)” value amounted to 3.8 absorbance.
Take B2: the “ELISA FLT3 (absorbance)” value worked out at 3.9 absorbance.
On the same count and under the same terms, under B3 stands 4 absorbance; under B4, 4 absorbance; under B5, 3.7 absorbance.
Regarding B6, the “ELISA FLT3 (absorbance)” value amounted to 4 absorbance.
Same read-out and setting: then B7, with 0.7 absorbance; and B8, with 0.5 absorbance; and B9, with 4 absorbance.
As to B10, the “ELISA FLT3 (absorbance)” value is 4 absorbance.
For B11, the “ELISA FLT3 (absorbance)” value stood at 3.4 absorbance.
Still for that read-out and setting: then B12, with 2.9 absorbance; and B13, with 4 absorbance.
Consider B14, for which the “ELISA FLT3 (absorbance)” value was determined as 2 absorbance.
On the same count and under the same terms, then B15, with 1.1 absorbance; and B16, with 1.6 absorbance.
On to B17, for which the “ELISA FLT3 (absorbance)” value was 1.8 absorbance.
B18: the “ELISA FLT3 (absorbance)” value was 1.7 absorbance.
Turning to B19, the “ELISA FLT3 (absorbance)” value worked out at 0.9 absorbance.
Take B20: the “ELISA FLT3 (absorbance)” value was determined as 2.6 absorbance.
For B21, the “ELISA FLT3 (absorbance)” value was found to be 1.8 absorbance.
Still for that read-out and setting: under B22 stands 4 absorbance; under B23, 1.4 absorbance; under B24, 3.2 absorbance.
The same measure, in the same setting: then B25, with 3.7 absorbance; and B26, with 3.8 absorbance; and B27, with 2.9 absorbance.
As for B28, the “ELISA FLT3 (absorbance)” value came out at 1.9 absorbance.

The target in another assay is T1, human FLT3 protein. Briefly: colorimetric ELISA, signal over control wells lacking FLT3.
From the text: as §1
B1 gave an FLT3/control of 11 ratio.
On to B2, for which the FLT3/control is 25 ratio.
With B3, the FLT3/control turned out to be 39 ratio.
B4 returned an FLT3/control of 27 ratio.
The molecule B5 had an FLT3/control of 43 ratio.
The same measure, in the same setting: then B6, with 28 ratio; and B7, with 9 ratio; and B8, with 6 ratio.
The molecule B9 registered an FLT3/control of 48 ratio.
For the molecule B10, the FLT3/control was found to be 10 ratio.
Molecule B11 showed an FLT3/control of 11 ratio.
The same measure, in the same setting: under B12 stands 4 ratio; under B13, 43 ratio; under B14, 12 ratio.
Molecule B15 yielded an FLT3/control of 5 ratio.
In turn, B16 had an FLT3/control of 5 ratio.
In the case of B17, the FLT3/control was 5 ratio.
B18 gave an FLT3/control of 3 ratio.
The same measure, in the same setting: under B19 stands 4 ratio.
The same measure, in the same setting: under B20 stands 9 ratio.
On to B21, for which the FLT3/control amounted to 8 ratio.
Molecule B22 showed an FLT3/control of 22 ratio.
Take B23: the FLT3/control was determined as 7 ratio.
B24 registered an FLT3/control of 5 ratio.
On to B25, for which the FLT3/control is 17 ratio.
Molecule B26 returned an FLT3/control of 28 ratio.
Regarding B27, the FLT3/control was found to be 16 ratio.
The molecule B28 displayed an FLT3/control of 18 ratio.
